Assay results as given in publication PMC4713166, “Chicken scFvs with an Artificial Cysteine for Site-Directed Conjugation” (PLoS ONE, 2016).

Target: T1, recombinant human Fc-tagged PSA (Homo sapiens, UniProt P07288)
T1 construct: prostate-specific antigen (PSA), human; also called prostate-specific antigen; recombinant Fc-tagged PSA
Experiment: ELISA; phage enzyme immunoassay: recombinant human Fc-tagged PSA coated on the microtiter plate (5 ug/ml in PBS, overnight at 4 C), blocked with 3% BSA in PBS; scFv-displaying phages in culture supernatant; HRP-conjugated anti-M13 antibody, ABTS, optical density at 405 nm
Conditions: one partner purified

T1 sequence (P07288 18-261): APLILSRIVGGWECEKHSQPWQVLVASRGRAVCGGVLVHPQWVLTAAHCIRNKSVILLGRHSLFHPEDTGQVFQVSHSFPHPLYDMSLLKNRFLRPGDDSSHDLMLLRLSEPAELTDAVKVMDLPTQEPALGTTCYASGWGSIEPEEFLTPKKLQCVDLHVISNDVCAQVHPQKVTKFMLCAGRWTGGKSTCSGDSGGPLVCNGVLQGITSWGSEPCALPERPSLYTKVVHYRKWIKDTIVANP

| Binder | binding result |
| --- | --- |
| artificial cysteine-mutant scFv L5, scFv-pIII fusion protein displayed on phage (scFv, V domains shown, VH as in m2; Order VL-linker-VH worked out as for m2) VH: AVTLDESGGGLQTPGGALSLVCKASGFTFSSYDMGWVRQAPGKGLEWVAGIDDDGSYPNYGPAVKGRATISRDNGQSTVRLQLNNLRAEDTGTYFCAKGIESDSDGYMTAEEIDAWGHGTEVIVSS VL: ALCQPSSVSANLGGTVKITCSGGYSYYGWYQQKSPGSAPVTVIYESTKRPSNIPSRFSGSTSGSTGTLTITGVQADDAAVYYCGSWDSSSVGIFGAGTTLTVL | binds |
| artificial cysteine-mutant scFv L6, scFv-pIII fusion protein displayed on phage (scFv, V domains shown, VH as in m2; Order VL-linker-VH worked out as for m2) VH: AVTLDESGGGLQTPGGALSLVCKASGFTFSSYDMGWVRQAPGKGLEWVAGIDDDGSYPNYGPAVKGRATISRDNGQSTVRLQLNNLRAEDTGTYFCAKGIESDSDGYMTAEEIDAWGHGTEVIVSS VL: ALTCPSSVSANLGGTVKITCSGGYSYYGWYQQKSPGSAPVTVIYESTKRPSNIPSRFSGSTSGSTGTLTITGVQADDAAVYYCGSWDSSSVGIFGAGTTLTVL | binds |
| artificial cysteine-mutant scFv L7, scFv-pIII fusion protein displayed on phage (scFv, V domains shown, VH as in m2; Order VL-linker-VH worked out as for m2) VH: AVTLDESGGGLQTPGGALSLVCKASGFTFSSYDMGWVRQAPGKGLEWVAGIDDDGSYPNYGPAVKGRATISRDNGQSTVRLQLNNLRAEDTGTYFCAKGIESDSDGYMTAEEIDAWGHGTEVIVSS VL: ALTQCSSVSANLGGTVKITCSGGYSYYGWYQQKSPGSAPVTVIYESTKRPSNIPSRFSGSTSGSTGTLTITGVQADDAAVYYCGSWDSSSVGIFGAGTTLTVL | binds |
| artificial cysteine-mutant scFv H13 (QCP), scFv-pIII fusion protein displayed on phage (scFv, V domains shown, VL as in m2; Order VL-linker-VH worked out as for m2) VH: AVTLDESGGGLQCPGGALSLVCKASGFTFSSYDMGWVRQAPGKGLEWVAGIDDDGSYPNYGPAVKGRATISRDNGQSTVRLQLNNLRAEDTGTYFCAKGIESDSDGYMTAEEIDAWGHGTEVIVSS VL: ALTQPSSVSANLGGTVKITCSGGYSYYGWYQQKSPGSAPVTVIYESTKRPSNIPSRFSGSTSGSTGTLTITGVQADDAAVYYCGSWDSSSVGIFGAGTTLTVL | binds |
| artificial cysteine-mutant scFv H16, scFv-pIII fusion protein displayed on phage (scFv, V domains shown, VL as in m2; Order VL-linker-VH worked out as for m2) VH: AVTLDESGGGLQTPGCALSLVCKASGFTFSSYDMGWVRQAPGKGLEWVAGIDDDGSYPNYGPAVKGRATISRDNGQSTVRLQLNNLRAEDTGTYFCAKGIESDSDGYMTAEEIDAWGHGTEVIVSS VL: ALTQPSSVSANLGGTVKITCSGGYSYYGWYQQKSPGSAPVTVIYESTKRPSNIPSRFSGSTSGSTGTLTITGVQADDAAVYYCGSWDSSSVGIFGAGTTLTVL | binds |

Target: T1, recombinant human Fc-tagged PSA
Experiment: ELISA; enzyme immunoassay: recombinant human Fc-tagged PSA coated on the plate (0.1 M NaHCO3 pH 8.6, overnight at 4 C), blocked with 3% BSA in PBS; 250 ng cotinine-conjugated scFv-C kappa fusion protein in 50 ul, 1 h at 37 C; HRP-conjugated anti-cotinine IgG1 or HRP-conjugated anti-human C kappa antibody, TMB, optical density at 450 nm
Conditions: both partners purified

| Binder | binding result |
| --- | --- |
| charge-variant artificial H13 cysteine-mutant scFv RCK, scFv-C kappa fusion protein cotinine conjugate (scFv, V domains shown, VL as in m2; VH as in m6 (GenBank KP764767 with cysteine at Kabat H13), the flanking residues of H13 changed from QCP to RCK; source: HEK293F, transfected, purified (KappaSelect); reduced with TCEP-HCl, treated with dehydroascorbic acid, conjugated with GMBS-coupled cotinine) VH: AVTLDESGGGLRCKGGALSLVCKASGFTFSSYDMGWVRQAPGKGLEWVAGIDDDGSYPNYGPAVKGRATISRDNGQSTVRLQLNNLRAEDTGTYFCAKGIESDSDGYMTAEEIDAWGHGTEVIVSS VL: ALTQPSSVSANLGGTVKITCSGGYSYYGWYQQKSPGSAPVTVIYESTKRPSNIPSRFSGSTSGSTGTLTITGVQADDAAVYYCGSWDSSSVGIFGAGTTLTVL | binds |
| charge-variant artificial H13 cysteine-mutant scFv DCE, scFv-C kappa fusion protein cotinine conjugate (scFv, V domains shown, VL as in m2; VH as in m6 (GenBank KP764767 with cysteine at Kabat H13), the flanking residues of H13 changed from QCP to DCE; also called DEC (as printed once); source: HEK293F, transfected, purified (KappaSelect); reduced with TCEP-HCl, treated with dehydroascorbic acid, conjugated with GMBS-coupled cotinine) VH: AVTLDESGGGLDCEGGALSLVCKASGFTFSSYDMGWVRQAPGKGLEWVAGIDDDGSYPNYGPAVKGRATISRDNGQSTVRLQLNNLRAEDTGTYFCAKGIESDSDGYMTAEEIDAWGHGTEVIVSS VL: ALTQPSSVSANLGGTVKITCSGGYSYYGWYQQKSPGSAPVTVIYESTKRPSNIPSRFSGSTSGSTGTLTITGVQADDAAVYYCGSWDSSSVGIFGAGTTLTVL | binds |
| charge-variant artificial H13 cysteine-mutant scFv ECD, scFv-C kappa fusion protein cotinine conjugate (scFv, V domains shown, VL as in m2; VH as in m6 (GenBank KP764767 with cysteine at Kabat H13), the flanking residues of H13 changed from QCP to ECD; source: HEK293F, transfected, purified (KappaSelect); reduced with TCEP-HCl, treated with dehydroascorbic acid, conjugated with GMBS-coupled cotinine) VH: AVTLDESGGGLECDGGALSLVCKASGFTFSSYDMGWVRQAPGKGLEWVAGIDDDGSYPNYGPAVKGRATISRDNGQSTVRLQLNNLRAEDTGTYFCAKGIESDSDGYMTAEEIDAWGHGTEVIVSS VL: ALTQPSSVSANLGGTVKITCSGGYSYYGWYQQKSPGSAPVTVIYESTKRPSNIPSRFSGSTSGSTGTLTITGVQADDAAVYYCGSWDSSSVGIFGAGTTLTVL | binds |
| charge-variant artificial H13 cysteine-mutant scFv ECE, scFv-C kappa fusion protein cotinine conjugate (scFv, V domains shown, VL as in m2; VH as in m6 (GenBank KP764767 with cysteine at Kabat H13), the flanking residues of H13 changed from QCP to ECE; source: HEK293F, transfected, purified (KappaSelect); reduced with TCEP-HCl, treated with dehydroascorbic acid, conjugated with GMBS-coupled cotinine) VH: AVTLDESGGGLECEGGALSLVCKASGFTFSSYDMGWVRQAPGKGLEWVAGIDDDGSYPNYGPAVKGRATISRDNGQSTVRLQLNNLRAEDTGTYFCAKGIESDSDGYMTAEEIDAWGHGTEVIVSS VL: ALTQPSSVSANLGGTVKITCSGGYSYYGWYQQKSPGSAPVTVIYESTKRPSNIPSRFSGSTSGSTGTLTITGVQADDAAVYYCGSWDSSSVGIFGAGTTLTVL | binds |
| artificial cysteine-mutant scFv L5, scFv-C kappa fusion protein cotinine conjugate (scFv, V domains shown, VL as in m3: GenBank KP764766 with Kabat residue L5 replaced with cysteine; VH as in m2; that it was a cotinine conjugate of the scFv-C kappa protein is inferred from that detection; also called L5 mutant scFv; source: HEK293F, transfected, purified (KappaSelect); conjugated with GMBS-coupled cotinine) VH: AVTLDESGGGLQTPGGALSLVCKASGFTFSSYDMGWVRQAPGKGLEWVAGIDDDGSYPNYGPAVKGRATISRDNGQSTVRLQLNNLRAEDTGTYFCAKGIESDSDGYMTAEEIDAWGHGTEVIVSS VL: ALCQPSSVSANLGGTVKITCSGGYSYYGWYQQKSPGSAPVTVIYESTKRPSNIPSRFSGSTSGSTGTLTITGVQADDAAVYYCGSWDSSSVGIFGAGTTLTVL | binds |
